B1: Azoarcus group I ribozyme (parent)
chain: GUGCCUUGCGCCGGGAAACCACGCAAGGGAUGGUGUCAAAUUCGGCGAAACCUAAGCGCCCGCCCGGGCGUAUGGCAACGCCGAGCCAAGCUUCGGCGCCUGCGCCGAUGAAGGUGUAGAGACUAGACGGCACCCACCUAAGGCAAACGCUAUGGUGAAGGCAUAGUCCAGGGAGUGGCGAAAGUCACACAAACCGG

Variants of: B1
Assay: reverse-splicing fitness (ratio to wild type); higher = more active; in vitro selection; Mg2+ level not given
Method in brief: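 An in vitro group I ribozyme library with randomized positions was T7-transcribed and gel-purified. In triplicate, 10 pmol RNA in EPPS pH 7.5 was reacted with 50 pmoles of a 30-nt RNA substrate for 1 h at 37 °C across several added MgCl2 levels (1–48 mM), then stopped with EDTA. Products were reverse transcribed from a substrate-complementary primer, PCR-amplified and sequenced (HiSeq 4000). Fitness is a variant's read proportion after selection over that before, normalised to wild type.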

Point of comparison: A120U C150A, reverse-splicing fitness 0.245. Against it:
- A120U A145U C150A C169U U176G — lower, 0.00399
- A120U A145U C150A C169U U176C — lower, 0.015
- A120U A145U C150A C169U U176A — lower, 0.0134
- A120U C150U C169A U176G — lower, 0.00183
- A120U C150U C169A U176A — lower, 0.0051
- A120U C150U C169A U176C — lower, 0.00368
- A120U U176A — higher, 0.66
- A120U U176C — higher, 0.678
- A120U U176G — higher, 0.421
- A145G C150G C169G — lower, 0.0446
- A145G C150G C169A — lower, 0.0272
- A145G C150G C169U — lower, 0.0734
- A120U A145G C150G C169A — lower, 0.00998
- A120U A145G C150G C169G — lower, 0.0353
- A120U A145G C150G C169U — lower, 0.0537
- A120U A145U C150G C169G U176G — lower, 0.00208
- A120U A145U C150G C169G U176A — lower, 0.00507
- A120U A145U C150G C169G U176C — lower, 0.00304
- A145G C150G U176G — lower, 0.0658
- A145G C150G U176C — higher, 0.371
- A145G C150G U176A — higher, 0.256
- A145C C150A U176C — lower, 0.206
- A145C C150A U176A — lower, 0.217
- A145C C150A U176G — lower, 0.14
- A145G C150G C169G U176G — lower, 0.00608
- A145G C150G C169G U176A — lower, 0.014
- A145G C150G C169G U176C — lower, 0.0156
- A120U A145U U176A — higher, 0.681
- A120U A145U U176G — higher, 0.328
- A120U A145U U176C — higher, 0.642
- A120U A145G — higher, 0.837
- A120U A145U — higher, 0.89
- A145G C150U — higher, 0.93
- A145G C150G — higher, 0.48
- A145G C150A — higher, 0.582
- A120U A145G C169G U176G — lower, 0.00281
- A120U A145G C169G U176A — lower, 0.0414
- A120U A145G C169G U176C — lower, 0.0902
- A120U C150G C169A U176A — lower, 0.00468
- A120U C150G C169A U176G — lower, 0.00242
- A120U C150G C169A U176C — lower, 0.00332
- A120U C150G C169U — lower, 0.0339
- A120U C150G C169A — lower, 0.00834
- A120U C150G C169G — lower, 0.0252
- A120U A145U C150A C169A U176C — lower, 0.00256
- A120U A145U C150A C169A U176A — lower, 0.0027
- A120U A145U C150A C169A U176G — lower, 0.00156
- A120U A145G U176C — higher, 0.685
- A120U A145G U176G — higher, 0.342
- A120U A145G U176A — higher, 0.704
- A145C C150A C169A U176G — lower, 0.00533
- A145C C150A C169A U176A — lower, 0.0107
- A145C C150A C169A U176C — lower, 0.00805
- A120U A145C C169G U176A — lower, 0.0356
- A120U A145C C169G U176G — lower, 0.00318
- A120U A145C C169G U176C — lower, 0.0504
- A120U C169U U176A — lower, 0.0922
- A120U C169U U176C — lower, 0.139
- A120U C169U U176G — lower, 0.0138
- A145C C150U U176G — higher, 0.308
- A145C C150U U176A — higher, 0.613
- A145C C150U U176C — higher, 0.596
- A120U A145U C150U — higher, 0.785
- A120U A145U C150G — higher, 0.267
- A120U A145U C150A — lower, 0.215
- A120U C169A U176C — lower, 0.00594
- A120U C169A U176A — lower, 0.00399
- A120U C169A U176G — lower, 0.00204
- A120U A145U C169U U176A — lower, 0.0858
- A120U A145U C169U U176G — lower, 0.0134
- A120U A145U C169U U176C — lower, 0.133
- A145C C150G C169A U176G — lower, 0.00491
- A145C C150G C169A U176C — lower, 0.0118
- A145C C150G C169A U176A — lower, 0.00984
- A120U A145C C150U — higher, 0.459
- A120U A145G C150U C169G U176C — lower, 0.063
- A120U A145G C150U C169G U176G — lower, 0.00281
- A120U A145G C150U C169G U176A — lower, 0.0289
- A120U A145G C169U U176G — lower, 0.0132
- A120U A145G C169U U176A — lower, 0.0927
- A120U A145G C169U U176C — lower, 0.126
- A120U C150G C169U U176G — lower, 0.00276
- A120U C150G C169U U176A — lower, 0.00472
- A120U C150G C169U U176C — lower, 0.0154
- A120U A145C C150U U176C — lower, 0.222
- A120U A145C C150U U176G — lower, 0.167
- A120U A145C C150U U176A — higher, 0.328
- A120U A145G C150A C169G U176C — lower, 0.0214
- A120U A145G C150A C169G U176G — lower, 0.00259
- A120U A145G C150A C169G U176A — lower, 0.012
- A120U A145U C150G U176G — lower, 0.018
- A120U A145U C150G U176C — lower, 0.148
- A120U A145U C150G U176A — lower, 0.122
- A145G C150A U176A — higher, 0.472
- A145G C150A U176G — lower, 0.184
- A145G C150A U176C — higher, 0.464
- A120U A145U C150U U176A — higher, 0.608
- A120U A145U C150U U176C — higher, 0.552
- A120U A145U C150U U176G — lower, 0.206
- A145C C169U — higher, 0.351
- A145C C169A — lower, 0.167
- A145C C169G — higher, 0.26
- A145C C169G U176C — lower, 0.116
- A145C C169G U176G — lower, 0.00875
- A145C C169G U176A — lower, 0.0744
- A120U A145U C169A U176C — lower, 0.00507
- A120U A145U C169A U176G — lower, 0.00158
- A120U A145U C169A U176A — lower, 0.00339
- A120U A145U C150G C169U U176C — lower, 0.0175
- A120U A145U C150G C169U U176A — lower, 0.00679
- A120U A145U C150G C169U U176G — lower, 0.00288
- A145C C150G C169A — lower, 0.0221
- A145C C150G C169U — lower, 0.0739
- A145C C150G C169G — lower, 0.0445
- A120U A145C C150U C169A U176C — lower, 0.00274
- A120U A145C C150U C169A U176A — lower, 0.00179
- A120U A145C C150U C169A U176G — lower, 0.00156
- A145C C169U U176C — lower, 0.156
- A145C C169U U176G — lower, 0.0117
- A145C C169U U176A — lower, 0.106
- A145C C150G U176G — lower, 0.114
- A145C C150G U176C — higher, 0.388
- A145C C150G U176A — higher, 0.364
- A120U A145G C150G C169U U176C — lower, 0.0205
- A120U A145G C150G C169U U176G — lower, 0.0045
- A120U A145G C150G C169U U176A — lower, 0.00909
- A120U A145G C150G C169G U176A — lower, 0.00914
- A120U A145G C150G C169G U176C — lower, 0.00575
- A120U A145G C150G C169G U176G — lower, 0.00354
- A145C C150A C169U U176A — lower, 0.023
- A145C C150A C169U U176C — lower, 0.0218
- A145C C150A C169U U176G — lower, 0.00589
- A120U A145C C150U C169U U176A — lower, 0.0309
- A120U A145C C150U C169U U176C — lower, 0.0258
- A120U A145C C150U C169U U176G — lower, 0.00705
- A120U A145C C169A U176A — lower, 0.00275
- A120U A145C C169A U176G — lower, 0.00153
- A120U A145C C169A U176C — lower, 0.00401
- A120U A145G C150U U176A — higher, 0.54
- A120U A145G C150U U176G — lower, 0.155
- A120U A145G C150U U176C — higher, 0.532
- A120U C150G — lower, 0.206
- A120U C150U — higher, 0.774
- A120U A145G C150A C169A U176G — lower, 0.00241
- A120U A145G C150A C169A U176C — lower, 0.00372
- A120U A145G C150A C169A U176A — lower, 0.00533
- A145G C150A C169A U176A — lower, 0.0203
- A145G C150A C169A U176G — lower, 0.00608
- A145G C150A C169A U176C — lower, 0.031
- A145G C150U C169U U176A — lower, 0.113
- A145G C150U C169U U176G — lower, 0.00803
- A145G C150U C169U U176C — lower, 0.149
- A120U A145U C150G C169A U176G — lower, 0.00241
- A120U A145U C150G C169A U176C — lower, 0.00335
- A120U A145U C150G C169A U176A — lower, 0.00344
- A120U C150U C169U — lower, 0.203
- A120U C150U C169G — lower, 0.15
- A120U C150U C169A — lower, 0.0111
- A120U C150U C169U U176C — lower, 0.083
- A120U C150U C169U U176A — lower, 0.0605
- A120U C150U C169U U176G — lower, 0.00872
- A145G C150G C169A U176C — lower, 0.0194
- A145G C150G C169A U176A — lower, 0.0133
- A145G C150G C169A U176G — lower, 0.00779
- A120U A145G C150G C169A U176G — lower, 0.00464
- A120U A145G C150G C169A U176A — lower, 0.0107
